According to paper PMC9357085, “Three pairs of surrogate redox partners comparison for Class I cytochrome P450 enzyme activity reconstitution” (Communications Biology, 2022):
Residue numbers refer to the chain shown, from its start.

How the values were obtained:
[1] = target: T1, AdR (adrenodoxin reductase) (Bos taurus, UniProt P08165); assay: DCIP reduction, absorbance at […] nm; format: biochemical; settings: 30 °C
T1 construct: gene FDXR; C-terminal His-tag, expressed in E. coli; template plasmid pBAR-bAdR
T1 sequence (P08165 33-492): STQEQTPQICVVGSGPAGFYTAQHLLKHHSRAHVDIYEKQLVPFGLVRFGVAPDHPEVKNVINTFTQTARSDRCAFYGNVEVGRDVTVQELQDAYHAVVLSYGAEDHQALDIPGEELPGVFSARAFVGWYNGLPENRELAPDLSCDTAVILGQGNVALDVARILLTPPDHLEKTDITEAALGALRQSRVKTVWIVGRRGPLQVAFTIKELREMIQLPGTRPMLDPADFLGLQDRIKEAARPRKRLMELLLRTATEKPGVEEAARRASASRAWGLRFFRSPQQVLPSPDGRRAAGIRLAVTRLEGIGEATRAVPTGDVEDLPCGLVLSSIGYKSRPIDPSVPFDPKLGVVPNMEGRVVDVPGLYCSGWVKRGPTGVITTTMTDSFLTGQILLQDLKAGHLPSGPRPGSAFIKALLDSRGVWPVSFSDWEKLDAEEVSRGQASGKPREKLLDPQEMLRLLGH

[2] = target: T2, SelFdR0978 (Synechococcus elongatus, UniProt Q31PL1); assay: DCIP reduction, absorbance at […] nm; format: biochemical; settings: 30 °C
T2 construct: gene Synpcc7942_0978
T2 sequence (Q31PL1 1-403): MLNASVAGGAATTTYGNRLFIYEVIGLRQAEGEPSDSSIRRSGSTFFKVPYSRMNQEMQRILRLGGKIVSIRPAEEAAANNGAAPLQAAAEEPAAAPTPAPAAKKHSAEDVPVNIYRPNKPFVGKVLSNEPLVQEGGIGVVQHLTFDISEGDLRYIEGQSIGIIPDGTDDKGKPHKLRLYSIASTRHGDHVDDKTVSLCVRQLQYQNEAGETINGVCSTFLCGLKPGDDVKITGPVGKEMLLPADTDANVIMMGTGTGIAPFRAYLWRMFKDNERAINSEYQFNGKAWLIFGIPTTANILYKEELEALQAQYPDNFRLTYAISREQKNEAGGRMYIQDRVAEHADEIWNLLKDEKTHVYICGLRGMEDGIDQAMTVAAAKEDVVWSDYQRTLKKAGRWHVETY

[3] = target: T3, PdR (putidaredoxin reductase) (Pseudomonas putida, UniProt P16640); assay: DCIP reduction, absorbance at […] nm; format: biochemical; settings: 30 °C
T3 construct: gene camA; His-tagged, expressed in E. coli, Ni-NTA purified
T3 sequence (P16640 1-422): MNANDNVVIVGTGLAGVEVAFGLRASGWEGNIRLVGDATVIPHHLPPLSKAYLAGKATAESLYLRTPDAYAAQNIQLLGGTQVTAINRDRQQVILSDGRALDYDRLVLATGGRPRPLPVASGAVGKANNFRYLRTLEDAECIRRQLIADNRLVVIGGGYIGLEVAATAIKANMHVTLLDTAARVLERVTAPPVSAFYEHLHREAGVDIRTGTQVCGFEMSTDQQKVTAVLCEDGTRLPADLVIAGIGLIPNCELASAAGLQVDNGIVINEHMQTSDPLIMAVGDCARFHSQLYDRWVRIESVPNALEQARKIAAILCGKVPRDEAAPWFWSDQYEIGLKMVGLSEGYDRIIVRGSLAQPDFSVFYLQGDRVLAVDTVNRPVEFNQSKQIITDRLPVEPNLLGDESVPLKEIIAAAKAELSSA

[4] = target: T4, Bovine adrenodoxin reductase (bovine) (UniProt P08165)
T4 sequence: T1 sequence (P08165 33-492)

[5] = target: plastidic-type ferredoxin reductase SelFdR0978 from Synechococcus elongatus PCC 7942 (Synechococcus elongatus PCC 7942)
[6] = target: T5, putidaredoxin reductase from Pseudomonas putida (Pseudomonas putida) (UniProt P16640)
T5 sequence: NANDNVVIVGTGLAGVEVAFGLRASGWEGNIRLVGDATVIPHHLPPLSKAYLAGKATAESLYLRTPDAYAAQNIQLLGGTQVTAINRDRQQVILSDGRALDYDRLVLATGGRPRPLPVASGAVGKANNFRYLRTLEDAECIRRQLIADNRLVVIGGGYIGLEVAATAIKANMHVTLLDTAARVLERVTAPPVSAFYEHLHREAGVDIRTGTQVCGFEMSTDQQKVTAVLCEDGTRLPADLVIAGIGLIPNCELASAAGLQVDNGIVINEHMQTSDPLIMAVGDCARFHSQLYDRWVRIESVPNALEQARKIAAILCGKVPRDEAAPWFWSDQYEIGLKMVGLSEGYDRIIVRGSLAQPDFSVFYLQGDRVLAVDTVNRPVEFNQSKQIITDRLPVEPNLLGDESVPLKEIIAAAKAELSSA

[7] = target: T4, Bovine adrenodoxin reductase (bovine); remark: listed apart in the source
[8] = target: T2, SelFdR0978; assay: FAD released by guanidinium chloride, absorbance at […] nm; format: binding; settings: FAD-bound flavoprotein as purified
[9] = target: T6, P450sca-2 (CYP105A3) (Streptomyces carbophilus, UniProt Q59831); assay: HPLC/HRMS of products, reconstituted system; format: biochemical; settings: SelFdx1499/SelFdR0978 as redox partners (1:10:5), NADP+ with regeneration, pH 7.4, 30 °C, 2 h
T6 construct: His-tagged, expressed in E. coli, Ni-NTA purified
T6 sequence (Q59831 2-410): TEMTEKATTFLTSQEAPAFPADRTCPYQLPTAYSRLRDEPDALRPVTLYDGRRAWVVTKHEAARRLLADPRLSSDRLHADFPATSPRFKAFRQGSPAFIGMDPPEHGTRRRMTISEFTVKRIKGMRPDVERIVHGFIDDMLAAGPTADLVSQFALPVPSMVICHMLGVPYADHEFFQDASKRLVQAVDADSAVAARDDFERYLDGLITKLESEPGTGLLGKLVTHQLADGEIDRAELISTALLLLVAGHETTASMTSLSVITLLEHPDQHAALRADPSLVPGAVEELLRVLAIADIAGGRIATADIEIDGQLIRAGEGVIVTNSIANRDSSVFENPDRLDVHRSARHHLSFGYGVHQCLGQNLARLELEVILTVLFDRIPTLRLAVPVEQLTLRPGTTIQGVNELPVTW

[10] = target: T7, EpoK (CYP167A1) (Sorangium cellulosum, UniProt Q9KIZ4); assay: conversion assay, reconstituted system; format: biochemical; settings: SelFdx1499/SelFdR0978 as redox partners
T7 construct: His-tagged, expressed in E. coli (general P450 statement)
T7 sequence (Q9KIZ4 whole entry): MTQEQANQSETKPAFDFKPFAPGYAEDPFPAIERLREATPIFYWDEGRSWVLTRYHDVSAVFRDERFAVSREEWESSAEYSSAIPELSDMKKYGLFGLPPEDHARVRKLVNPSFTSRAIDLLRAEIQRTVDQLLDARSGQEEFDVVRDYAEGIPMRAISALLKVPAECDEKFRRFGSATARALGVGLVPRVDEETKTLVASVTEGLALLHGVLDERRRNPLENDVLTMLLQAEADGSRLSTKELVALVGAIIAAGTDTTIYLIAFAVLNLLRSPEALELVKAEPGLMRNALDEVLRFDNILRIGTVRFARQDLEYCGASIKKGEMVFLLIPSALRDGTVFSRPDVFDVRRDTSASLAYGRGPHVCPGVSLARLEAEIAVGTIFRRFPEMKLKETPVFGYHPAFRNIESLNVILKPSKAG

[11] = target: plastidic-type ferredoxin reductase SelFdR0978 from Synechococcus elongatus PCC 7942 (Synechococcus elongatus PCC 7942); remark: listed apart in the source
[12] = target: T5, putidaredoxin reductase from Pseudomonas putida (Pseudomonas putida); remark: listed apart in the source
[13] = electron donor at 1 mM, DCIP as acceptor
[14] = electron acceptor, 1 mM NADPH or NADH

NC(=O)C1=CN([C@@H]2O[C@H](COP(=O)(O)OP(=O)(O)OC[C@H]3O[C@@H](n4cnc5c(N)ncnc54)[C@H](OP(=O)(O)O)[C@@H]3O)[C@@H](O)[C@H]2O)C=CC1 [NADPH]
DCIP reduction, absorbance at 600 nm [1, 13]: AdR only exhibited a slightly increased activity with NADPH than with NADH
DCIP reduction, absorbance at 600 nm [2, 13]: SelFdR0978 showed a strong preference for NADPH over NADH

O=C1C(Cl)=CC(=Nc2ccc(O)cc2)C=C1Cl [DCIP]
DCIP reduction, absorbance at 600 nm [1, 14]: SelFdR0978 was more efficient in DCIP reduction than both AdR and PdR
DCIP reduction, absorbance at 600 nm [3, 14]: SelFdR0978 was more efficient in DCIP reduction than both AdR and PdR
DCIP reduction, absorbance at 600 nm [2, 14]: SelFdR0978 was more efficient in DCIP reduction than both AdR and PdR

Bovine adrenodoxin Adx(4-108) (domain or fragment)
Km for the redoxin in cyt c reduction (NAD(P)H, 1 nM FdR, 0-40 uM Fdx, 30 uM cyt c) [4]: 14.6 µM
conversion rate of YC-17 by PikC (1 uM P450, 10 uM Fdx, 5 uM FdR), wild-type reference [5]: 15.6%
conversion rate of YC-17 by PikC (1 uM P450, 10 uM Fdx, 5 uM FdR), wild-type reference [6]: 16.5%
conversion rate of YC-17 by PikC (1 uM P450, 10 uM Fdx, 5 uM FdR), wild-type reference [7]: 63.8%

Cc1cc2nc3c(=O)[nH]c(=O)nc-3n(C[C@H](O)[C@H](O)[C@H](O)COP(=O)(O)OP(=O)(O)OC[C@H]3O[C@@H](n4cnc5c(N)ncnc54)[C@H](O)[C@@H]3O)c2cc1C [FAD]
FAD released by guanidinium chloride, absorbance at 450 nm [8]: extinction coefficients of the flavin-bound SelFdR0978

CC[C@H](C)C(=O)O[C@H]1CCC=C2C=C[C@H](C)[C@H](CC[C@@H](O)C[C@@H](O)CC(=O)O)[C@H]21
HPLC/HRMS of products, reconstituted system [9]: P450sca-2 produced pravastatin as the main product in all positive reactions

C/C1=C/C[C@@H](/C(C)=C/c2csc(C)n2)OC(=O)C[C@H](O)C(C)(C)C(=O)[C@H](C)[C@@H](O)[C@@H](C)CCC1 [epothilone D]
conversion assay, reconstituted system [10]: EpoK catalyzes the epoxidation of C12-C13 double bond in epothilone D to form epothilone B

NC(=O)C1=CN([C@@H]2O[C@H](COP(=O)(O)OP(=O)(O)OC[C@H]3O[C@@H](n4cnc5c(N)ncnc54)[C@H](O)[C@@H]3O)[C@@H](O)[C@H]2O)C=CC1 [NADH]
DCIP reduction, absorbance at 600 nm [3, 13]: PdR preferred NADH to NADPH

Fe2S2 ferredoxin SelFdx1499 from Synechococcus elongatus PCC 7942 (natural protein)
Km for the redoxin in cyt c reduction (NAD(P)H, 1 nM FdR, 0-40 uM Fdx, 30 uM cyt c) [11]: 14.2 µM
conversion rate of YC-17 by PikC (1 uM P450, 10 uM Fdx, 5 uM FdR), wild-type reference [5]: 99.1%
conversion rate of YC-17 by PikC (1 uM P450, 10 uM Fdx, 5 uM FdR), wild-type reference [6]: 24.7%
conversion rate of YC-17 by PikC (1 uM P450, 10 uM Fdx, 5 uM FdR), wild-type reference [7]: 30.1%

B1: Adx-M1 (domain or fragment)
chain: EDKITVHFINRDGETLTTKGKIGDALLDVVVQNNLDIDGFGACEGTLACSTCHLIFEQHIFEKLEAIADEEAAMLALAYGLTDRSRLGCQICLTKAMDNMTVRVP
conversion rate of YC-17 by PikC (1 uM P450, 10 uM Fdx, 5 uM FdR) [5]: 9.2%

B2: Adx-M2 (domain or fragment)
chain: B1 chain with A25S, D38A, E44A, L47A, A68T, A72N, A73D
conversion rate of YC-17 by PikC (1 uM P450, 10 uM Fdx, 5 uM FdR) [7]: 67.8%

B3: Adx-M3 (domain or fragment)
chain: B1 chain with A25S, D38A, G39A, A42L, A68T, A72N, A73D, A76D
conversion rate of YC-17 by PikC (1 uM P450, 10 uM Fdx, 5 uM FdR) [6]: 7.2%

B4: putidaredoxin from Pseudomonas putida (natural protein)
chain: SKVVYVSHDGTRRELDVADGVSLMQAAVSNGIYDIVGDCGGSASCATCHVYVNEAFTDKVPAANEREIGMLECVTAELKPNSRLCCQIIMTPELDGIVVDVPDRQW
Km for the redoxin in cyt c reduction (NAD(P)H, 1 nM FdR, 0-40 uM Fdx, 30 uM cyt c) [12]: 22.1 µM
conversion rate of YC-17 by PikC (1 uM P450, 10 uM Fdx, 5 uM FdR), wild-type reference [5]: 0%
conversion rate of YC-17 by PikC (1 uM P450, 10 uM Fdx, 5 uM FdR), wild-type reference [6]: 15.6%
conversion rate of YC-17 by PikC (1 uM P450, 10 uM Fdx, 5 uM FdR), wild-type reference [7]: 0%
